From article PMC7698151, “Evidence for Pentapeptide-Dependent and Independent CheB Methylesterases” (International Journal of Molecular Sciences, 2020)
Read-outs that look alike come from different tables or passages of the source.

Key:
[1] = molecular target: P. aeruginosa PAO1 CheB2 D55E mutant (Pseudomonas aeruginosa PAO1) (UniProt Q9I6V9); assay: ITC
[2] = molecular target: McpB (Aer2) pentapeptide (Pseudomonas aeruginosa); details: cited from earlier work
[3] = molecular target: Tar pentapeptide (Escherichia coli); details: cited from earlier work
[4] = molecular target: Tar methylation site (Escherichia coli) (UniProt P07017); details: cited from earlier work
[5] = molecular target: Tar pentapeptide (Escherichia coli); details: cited from earlier work; remark: listed apart in the source

CheR, sequence (P07364 whole entry): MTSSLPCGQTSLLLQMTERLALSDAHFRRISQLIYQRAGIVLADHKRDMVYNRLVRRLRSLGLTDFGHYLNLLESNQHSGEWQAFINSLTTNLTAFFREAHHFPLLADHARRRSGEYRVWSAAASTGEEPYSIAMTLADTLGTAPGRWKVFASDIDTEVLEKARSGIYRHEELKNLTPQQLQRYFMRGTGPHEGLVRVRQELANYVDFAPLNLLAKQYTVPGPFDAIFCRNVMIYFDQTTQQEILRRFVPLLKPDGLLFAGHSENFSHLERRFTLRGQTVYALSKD
CheB, sequence (P07330 whole entry): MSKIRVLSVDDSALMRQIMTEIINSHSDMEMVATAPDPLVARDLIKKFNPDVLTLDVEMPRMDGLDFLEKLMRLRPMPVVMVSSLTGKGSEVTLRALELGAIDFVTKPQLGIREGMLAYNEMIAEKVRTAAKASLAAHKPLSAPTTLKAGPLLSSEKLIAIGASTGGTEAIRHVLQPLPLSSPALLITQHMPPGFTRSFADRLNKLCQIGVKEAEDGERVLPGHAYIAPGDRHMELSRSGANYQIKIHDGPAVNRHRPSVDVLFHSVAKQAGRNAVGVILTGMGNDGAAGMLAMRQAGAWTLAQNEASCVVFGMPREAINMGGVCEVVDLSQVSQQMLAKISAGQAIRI

[…] pentapeptide of the McpB (Aer2) chemoreceptor
Kd [1]: 56 µM

CheR2 (from UniProt Q9I6V7)
Kd [2]: 0.52 µM

CheB (from UniProt P07330)
Kd [3]: 145 µM

CheR (from UniProt P07364)
Kd [4]: 150 µM
Kd [5]: 2 µM
